The target in assay [1] is human FcγRIIIA, 158F 176V allele, soluble (human) (UniProt P08637). Description: SPR (Biacore T100), steady state, MBP-Fn3 immobilized, soluble FcR injected.
In assay [2] the target is human FcγRIIIA, 158F 176F allele, soluble (human) (UniProt P08637). Described as above.

B1: MBP-IIIA537 (designed binder, not shown: large carriers)
chain: LGENLYFQSVSDVPRDLEVVVATPTSLLINWDLPFSDSYRITYGETGGNSPVQGFTVPGTESIATISGLKPGVDYTITVYAVASSGSNSYPISINYRTEIDKPSQ
On to B1, for which the Kd in assay [1] was 3.9 µM; in assay [2], 4.9 µM.

(Values after patent US20100221248A1.)
